Test results taken from the supplement of paper PMC5998384.

Legend:
[1] = tested on: HeLa Kyoto; experiment: thermal stability score vs G1/S (z-score of summed log2 fold changes over temperatures); higher = more thermally stable than in G1/S
[2] = tested on: HeLa Kyoto; experiment: solubility change mitosis vs G1/S (difference of NP-40 vs SDS log2 ratios) (log2 ratio difference); higher = more soluble in mitosis
[3] = tested on: HeLa Kyoto; experiment: melting temperature (median over replicates), in situ; higher = more thermally stable
[4] = tested on: HeLa Kyoto; experiment: solubility in G1/S (NP-40 vs SDS abundance) (log2 ratio); higher = more soluble; settings: cell cycle stage: G1/S
[5] = cell cycle stage: early G1 (4.5 h after nocodazole release)
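Wherever melting temperature (median over replicates), in situ is given: HeLa Kyoto cells synchronized by double thymidine or nocodazole block, proteins quantified by TMT10plex mass spectrometry, three independent biological replicates.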
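Wherever solubility change mitosis vs G1/S (difference of NP-40 vs SDS log2 ratios) is given: synchronized HeLa Kyoto cells (double thymidine block for G1/S, nocodazole release for mitosis), protein amounts in NP-40 versus SDS lysates quantified by mass spectrometry, three biological replicates.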
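Wherever solubility in G1/S (NP-40 vs SDS abundance) is given: HeLa Kyoto cells arrested at G1/S by double thymidine block, proteins quantified by TMT10plex mass spectrometry in mild NP-40 versus SDS extracts, three biological replicates.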
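Wherever thermal stability score vs G1/S (z-score of summed log2 fold changes over temperatures) is given: synchronized HeLa Kyoto cells, proteins quantified by TMT10plex mass spectrometry, three biological replicates, mitosis taken 0.5 h after nocodazole release, G1/S directly after double thymidine block.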

Sequence | thermal stability score [1, 5] | thermal stability score ([1]; cell cycle stage: mitosis) | solubility change mitosis (log2) [2] | melting temperature ([3]; cell cycle stage: G1/S) [°C] | melting temperature ([3]; cell cycle stage: mitosis) [°C] | solubility in G1/S (log2) [4]
MFSLSSTVQPQVTVPLSHLINAFHTPKNTSVSLSGVSVSQNQHRDVVPEHEAPSSECMFSDFLTKLNIVSIGKGKIFEGYRSMFMEPAKRMKKSLDTTDNWHIRPEPFSLSIPPSLNLRDLGLSELKIGQIDQLVENLLPGFCKGKNISSHWHTSHVSAQSFFENKYGNLDIFSTLRSSCLYRHHSRALQSICSDLQYWPVFIQSRGFKTLKSRTRRLQSTSERLAETQNIAPSFVKGFLLRDRGSDVESLDKLMKTKNIPEAHQDAFKTGFAEGFLKAQALTQKTNDSLRRTRLILFVLLLFGIYGLLKNPFLSVRFRTTTGLDSAVDPVQMKNVTFEHVKGVEEAKQELQEVVEFLKNPQKFTILGGKLPKGILLVGPPGTGKTLLARAVAGEADVPFYYASGSEFDEMFVGVGASRIRNLFREAKANAPCVIFIDELDSVGGKRIESPMHPYSRQTINQLLAEMDGFKPNEGVIIIGATNFPEALDNALIRPGRFDMQVTVPRPDVKGRTEILKWYLNKIKFDQSVDPEIIARGTVGFSGAELENLVNQAALKAAVDGKEMVTMKELEFSKDKILMGPERRSVEIDNKNKTITAYHESGHAIIAYYTKDAMPINKATIMPRGPTLGHVSLLPENDRWNETRAQLLAQMDVSMGGRVAEELIFGTDHITTGASSDFDNATKIAKRMVTKFGMSEKLGVMTYSDTGKLSPETQSAIEQEIRILLRDSYERAKHILKTHAKEHKNLAEALLTYETLDAKEIQIVLEGKKLEVR [YME1L1] | 2.02 | 1.49 | -0.0396 | 50.9 | 50.8 | 0.0482
MFSWLKRGGARGQQPEAIRTVTSALKELYRTKLLPLEEHYRFGAFHSPALEDADFDGKPMVLVAGQYSTGKTSFIQYLLEQEVPGSRVGPEPTTDCFVAVMHGDTEGTVPGNALVVDPDKPFRKLNPFGNTFLNRFMCAQLPNQVLESISIIDTPGILSGAKQRVSRGYDFPAVLRWFAERVDLIILLFDAHKLEISDEFSEAIGALRGHEDKIRVVLNKADMVETQQLMRVYGALMWALGKVVGTPEVLRVYIGSFWSQPLLVPDNRRLFELEEQDLFRDIQGLPRHAALRKLNDLVKRARLVRVHAYIISYLKKEMPSVFGKENKKKQLILKLPVIFAKIQLEHHISPGDFPDCQKMQELLMAHDFTKFHSLKPKLLEALDEMLTHDIAKLMPLLRQEELESTEVGVQGGAFEGTHMGPFVERGPDEAMEDGEEGSDDEAEWVVTKDKSKYDEIFYNLAPADGKLSGSKAKTWMVGTKLPNSVLGRIWKLSDVDRDGMLDDEEFALASHLIEAKLEGHGLPANLPRRLVPPSKRRHKGSAE [EHD2] | 1.58 | 2.05 | -0.164 | 48.9 | 49.5 | 0.231
MFVPCGESAPDLAGFTLLMPAVSVGNVGQLAMDLIISTLNMSKIGYFYTDCLVPMVGNNPYATTEGNSTELSINAEVYSLPSRKLVALQLRSIFIKYKSKPFCEKLLSWVKSSGCARVIVLSSSHSYQRNDLQLRSTPFRYLLTPSMQKSVQNKIKSLNWEEMEKSRCIPEIDDSEFCIRIPGGGITKTLYDESCSKEIQMAVLLKFVSEGDNIPDALGLVEYLNEWLQILKPLSDDPTVSASRWKIPSSWRLLFGSGLPPALF [PSMG2] | -0.904 | -2.71 | -0.0561 | 54.2 | 53.9 | 0.264
MFWKFDLHSSSHIDTLLEREDVTLKELMDEEDVLQECKAQNRKLIEFLLKAECLEDLVSFIIEEPPQDMDEKIRYKYPNISCELLTSDVSQMNDRLGEDESLLMKLYSFLLNDSPLNPLLASFFSKVLSILISRKPEQIVDFLKKKHDFVDLIIKHIGTSAIMDLLLRLLTCIEPPQPRQDVLNWLNEEKIIQRLVEIVHPSQEEDRHSNASQSLCEIVRLSRDQMLQIQNSTEPDPLLATLEKQEIIEQLLSNIFHKEKNESAIVSAIQILLTLLETRRPTFEGHIEICPPGMSHSACSVNKSVLEAIRGRLGSFHELLLEPPKKSVMKTTWGVLDPPVGNTRLNVIRLISSLLQTNTSSINGDLMELNSIGVILNMFFKYTWNNFLHTQVEICIALILASPFENTENATITDQDSTGDNLLLKHLFQKCQLIERILEAWEMNEKKQAEGGRRHGYMGHLTRIANCIVHSTDKGPNSALVQQLIKDLPDEVRERWETFCTSSLGETNKRNTVDLVTTCHIHSSSDDEIDFKETGFSQDSSLQQAFSDYQMQQMTSNFIDQFGFNDEKFADQDDIGNVSFDRVSDINFTLNTNESGNIALFEACCKERIQQFDDGGSDEEDIWEEKHIAFTPESQRRSSSGSTDSEESTDSEEEDGAKQDLFEPSSANTEDKMEVDLSEPPNWSANFDVPMETTHGAPLDSVGSDVWSTEEPMPTKETGWASFSEFTSSLSTKDSLRSNSPVEMETSTEPMDPLTPSAAALAVQPEAAGSVAMEASSDGEEDAESTDKVTETVMNGGMKETLSLTVDAKTETAVFKSEEGKLSTSQDAACKDAEECPETAEAKCAAPRPPSSSPEQRTGQPSAPGDTSVNGPV [PPP6R3] | -1.86 | -1.84 | -0.12 | 54.9 | 54.1 | -0.236
MFWKFDLNTTSHVDKLLDKEHVTLQELMDEDDILQECKAQNQKLLDFLCRQQCMEELVSLITQDPPLDMEEKVRFKYPNTACELLTCDVPQISDRLGGDESLLSLLYDFLDHEPPLNPLLASFFSKTIGNLIARKTEQVITFLKKKDKFISLVLKHIGTSALMDLLLRLVSCVEPAGLRQDVLHWLNEEKVIQRLVELIHPSQDEDRQSNASQTLCDIVRLGRDQGSQLQEALEPDPLLTALESQDCVEQLLKNMFDGDRTESCLVSGTQVLLTLLETRRVGTEGLVDSFSQGLERSYAVSSSVLHGIEPRLKDFHQLLLNPPKKKAILTTIGVLEEPLGNARLHGARLMAALLHTNTPSINQELCRLNTMDLLLDLFFKYTWNNFLHFQVELCIAAILSHAAREERTEASGSESRVEPPHENGNRSLETPQPAASLPDNTMVTHLFQKCCLVQRILEAWEANDHTQAAGGMRRGNMGHLTRIANAVVQNLERGPVQTHISEVIRGLPADCRGRWESFVEETLTETNRRNTVDLVSTHHLHSSSEDEDIEGAFPNELSLQQAFSDYQIQQMTANFVDQFGFNDEEFADQDDNINAPFDRIAEINFNIDADEDSPSAALFEACCSDRIQPFDDDEDEDIWEDSDTRCAARVMARPRFGAPHASESCSKNGPERGGQDGKASLEAHRDAPGAGAPPAPGKKEAPPVEGDSEGAMWTAVFDEPANSTPTAPGVVRDVGSSVWAAGTSAPEEKGWAKFTDFQPFCCSESGPRCSSPVDTECSHAEGSRSQGPEKASQASYFAVSPASPCAWNVCVTRKAPLLASDSSSSGGSHSEDGDQKAASAMDAVSRGPGREAPPLPTVARTEEAVGRVGCADSRLLSPACPAPKEVTAAPAVAVPPEATVAITTALSKAGPAIPTPAVSSALAVAVPLGPIMAVTAAPAMVATLGTVTKDGKTDAPPEGAALNGPV [PPP6R2] | -0.206 | -1.5 | -0.119 | 54.5 | 52.8 | 0.0656
